pKd: −log10 of the molar value.

Assay [1] addresses trifunctional high FHR4-valence heteromultimer multi-FHR4.C4bpα.His/multi-2D3 VHH anti-Her2.C4bpα.FLAG/mono-eGFP.C4bpβ (human) (UniProt Q92496). The experiment in a line: SPR (Biacore); FH multimer immobilised via Ni2+/NTA, C3b dose series as analyte.
Assay [2] shares this target. The experiment in a line: SPR (Biacore); affinity with factor B against C3b alone.
Assay [3] shares this target. The experiment in a line: SPR (Biacore); bound RU with factor B against C3b alone.
Assay [4] has the same target. The experiment in a line: SPR (Biacore); FH multimer immobilised via Ni2+/NTA, C3b dose series with about 20 µg/ml Factor B as analyte.

Sequence of trifunctional high FHR4-valence heteromultimer multi-FHR4.C4bpα.His/multi-2D3 VHH anti-Her2.C4bpα.FLAG/mono-eGFP.C4bpβ (human) (Q92496 other isoform, or with tags, fused parts or gaps, chain 1 of 3): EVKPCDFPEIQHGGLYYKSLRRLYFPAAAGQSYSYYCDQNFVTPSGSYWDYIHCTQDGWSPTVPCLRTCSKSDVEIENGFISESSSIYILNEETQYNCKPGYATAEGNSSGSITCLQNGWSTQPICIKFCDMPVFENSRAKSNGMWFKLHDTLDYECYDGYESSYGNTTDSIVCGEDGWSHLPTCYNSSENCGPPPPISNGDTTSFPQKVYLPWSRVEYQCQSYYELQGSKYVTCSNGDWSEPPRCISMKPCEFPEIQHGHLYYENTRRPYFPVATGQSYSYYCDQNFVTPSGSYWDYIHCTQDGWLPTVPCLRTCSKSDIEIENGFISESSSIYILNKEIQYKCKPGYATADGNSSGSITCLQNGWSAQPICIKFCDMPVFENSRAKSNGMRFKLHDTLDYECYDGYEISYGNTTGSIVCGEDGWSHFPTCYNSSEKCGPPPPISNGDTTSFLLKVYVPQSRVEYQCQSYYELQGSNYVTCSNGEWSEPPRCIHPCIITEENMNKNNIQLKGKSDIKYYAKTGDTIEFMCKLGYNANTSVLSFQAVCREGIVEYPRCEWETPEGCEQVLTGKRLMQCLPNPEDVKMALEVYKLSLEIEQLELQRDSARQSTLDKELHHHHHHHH
Sequence of trifunctional high FHR4-valence heteromultimer multi-FHR4.C4bpα.His/multi-2D3 VHH anti-Her2.C4bpα.FLAG/mono-eGFP.C4bpβ (human) (P04003 540-597, chain 2 of 3, further chain): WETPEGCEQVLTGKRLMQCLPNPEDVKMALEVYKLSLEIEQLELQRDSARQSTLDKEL
Sequence of trifunctional high FHR4-valence heteromultimer multi-FHR4.C4bpα.His/multi-2D3 VHH anti-Her2.C4bpα.FLAG/mono-eGFP.C4bpβ (human) (P20851 137-252, chain 3 of 3, further chain): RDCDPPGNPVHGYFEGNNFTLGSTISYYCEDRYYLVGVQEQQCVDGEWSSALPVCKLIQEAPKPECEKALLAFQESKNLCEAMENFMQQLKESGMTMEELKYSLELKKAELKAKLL

In assay [1], C3b (from UniProt P01024 749-1663) had a pKd of 6.02.
“C3b in the presence of Factor B (about 20 µg/ml) (from UniProt P01024 23-1663; P00751 26-764)”: the increase of binding affinity against C3b alone in assay [2] was found to be 2 logs. Also, the enhancement factor of bound C3b against C3b alone in assay [3] was determined as 5 fold. The substance further had a pKd in assay [4] of 8.06.
